Results published in paper PMC10311464.

Target: hnRNP D0 isoform 3, Myc-DDK-tagged (Origene RC200660) (UniProt Q14103-3 1-306)
Assay: EMSA

B1: rs678849 T allele probe (dsDNA)
DNA 1: TCAAAAGTACCTGCT
DNA 2: AGCAGGTACTTTTGA
B1: binds.
